Measurements: article PMC5806882, “Structural and biochemical characterization of the biuret hydrolase (BiuH) from the cyanuric acid catabolism pathway of Rhizobium leguminasorum bv. viciae 3841” (PLoS ONE, 2018)

Key:
[1] = biological target: the molecule itself; assay: crystal structure; X-ray structures of BiuH and variants; sitting drops at 20 °C; SeMet SAD, variants by molecular replacement; homotetramer in the asymmetric unit
[2] = biological target: the molecule itself; assay: SEC; Superdex 200 preparation grade, 130 mL column; 50 mM HEPES pH 7.5, 100 mM NaCl, later 50 mM Tris pH 7.5, 100 mM NaCl; elution compared with sizes expected for monomer, dimer, tetramer and octamer of BiuH

B1: BiuH Cys175Ser (enzyme)
chain: not shown
notes: Biuret hydrolase BiuH, Rhizobium leguminosarum bv. viciae 3841, UniProt Q1M7F4, with Cys175Ser; Crystallised without (6AZN) and with biuret (6AZQ); also called C175S; Cys175Ser BiuH variant; source: E. coli BL21 (λDE3), purified (Ni-NTA, SEC)
stoichiometry N [1]: 4

B2: BiuH Lys142Ala with N-carbamoyl-D,L-aspartic acid (enzyme)
chain: not shown
modifications: acyl (thiocarbamate) covalent complex between the deaminated inhibitor N-carbamoyl-D,L-aspartic acid and Cys175
notes: Biuret hydrolase BiuH, Rhizobium leguminosarum bv. viciae 3841, UniProt Q1M7F4, with Lys142Ala; also called K142A; Lys142Ala variant; source: E. coli BL21 (λDE3), purified (Ni-NTA, SEC)
stoichiometry N [1]: 4

B3: BiuH Lys142His (enzyme)
chain: not shown
notes: Biuret hydrolase BiuH, Rhizobium leguminosarum bv. viciae 3841, UniProt Q1M7F4, with Lys142His; also called K142H; source: E. coli BL21 (λDE3), purified (Ni-NTA, SEC)
stoichiometry N [1]: 4

B4: SeMet BiuH wild-type (seleno-L-methionine biuret hydrolase from Rhizobium leguminosarum bv. viciae 3841) (enzyme)
chain: not shown
modifications: selenomethionine in place of methionine
notes: Biuret hydrolase BiuH, Rhizobium leguminosarum bv. viciae 3841; synthetic gene encoding a protein identical to UniProt Q1M7F4; His-tag removed in situ with chymotrypsin, without further purification; also called biuret amidohydrolase; source: E. coli BL21 (λDE3), minimal medium with SeMet, purified (Ni-NTA, SEC); in situ chymotrypsin treatment in the crystallisation drop
stoichiometry N [1]: 4

B5: BiuH wild type (biuret hydrolase from Rhizobium leguminosarum bv. viciae 3841) (enzyme)
chain: not shown
notes: Biuret hydrolase BiuH, Rhizobium leguminosarum bv. viciae 3841; synthetic gene encoding a protein identical to UniProt Q1M7F4; Size exclusion followed Ni-NTA directly in the purification, so the tag was probably still on the protein; also called BiuH WT; biuret amidohydrolase; source: E. coli BL21 (λDE3), purified (Ni-NTA, SEC)
stoichiometry N [2]: 4
